In PMC9860668:

Target: rabbit muscle F-actin (rabbit) (UniProt P68135)
Assay: single-molecule force spectroscopy (scanning force microscopy); Imp-PM19 or ∆D3 mutant covalently bound through a PEG crosslinker to the SFM tip; F-actin_(rabbit) with unlabeled phalloidin immobilised on poly-l-lysine mica; F-buffer pH 6.8; set point 800 pN; retraction speed 2 µm/s; 1000 curves; WLC fit

Imp-PM19-His (immunodominant membrane protein of 'Candidatus Phytoplasma mali' strain PM19, His-tagged) (natural protein)
interaction force: 40 to 400 pN
maximal work of adhesion: 4.5 to 5 aJ
most frequently observed adhesion: 80 to 90 pN
rupture force: 100 pN
